T1: FcγRIIb (human, UniProt P31994 43-217)
T1 construct: extracellular domain; also called FcgRIIb; 2b
T1 sequence (looked up): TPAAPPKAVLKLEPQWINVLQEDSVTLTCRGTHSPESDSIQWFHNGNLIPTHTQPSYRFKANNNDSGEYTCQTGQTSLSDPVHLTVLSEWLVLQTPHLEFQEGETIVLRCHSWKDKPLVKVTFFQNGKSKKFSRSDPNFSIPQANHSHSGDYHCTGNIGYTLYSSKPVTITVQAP

T2: FcγRIIa R (human, UniProt P12318 34-217)
T2 construct: extracellular domain; also called FcgRIIa R type; 2aR
T2 sequence (looked up): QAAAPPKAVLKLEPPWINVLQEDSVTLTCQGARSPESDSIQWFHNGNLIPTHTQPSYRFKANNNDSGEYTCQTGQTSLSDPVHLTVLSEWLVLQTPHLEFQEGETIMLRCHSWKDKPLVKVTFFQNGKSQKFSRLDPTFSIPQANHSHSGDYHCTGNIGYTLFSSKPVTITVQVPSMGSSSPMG

B1: GpH7-A5/GpH7-B3 variant S267_18N/GpL16-k0 (antibody, human IgG1, kappa)
heavy 1: not shown
heavy 2: not shown
light: DIVMTQSPLSLPVTPGEPASISCQASESLVHSNRNTYLHWYLQKPGQSPQLLIYKVSNRFSGVPDRFSGSGSGTDFTLKISRVEAEDVGVYYCSQNTHVPPTFGQGTKVEIERTVAAPSVFIFPPSDEQLKSGTASVVCLLNNFYPREAKVQWKVDNALQSGNSQESVTEQDSKDSTYSLSSTLTLSKADYEKHKVYACEVTHQGLSSPVTKSFNRGEC
notes: Alteration in one H chain only; also called He Ab S267_18N
B2: GpH7-A5/GpH7-B3 variant Y296_08L/GpL16-k0 (antibody, human IgG1, kappa)
heavy 1: not shown
heavy 2: not shown
light: B1 light
notes: Alteration in one H chain only; also called He Ab Y296_08L
B3: GpH7-A5/GpH7-B3 variant Y296_07I/GpL16-k0 (antibody, human IgG1, kappa)
heavy 1: not shown
heavy 2: not shown
light: B1 light
notes: Alteration in one H chain only; also called He Ab Y296_07I
B4: GpH7-A5/GpH7-B3 variant Y296_03V/GpL16-k0 (antibody, human IgG1, kappa)
heavy 1: not shown
heavy 2: not shown
light: B1 light
notes: Alteration in one H chain only; also called He Ab Y296_03V
B5: GpH7-A5/GpH7-B3 variant Y300_07I/GpL16-k0 (antibody, human IgG1, kappa)
heavy 1: not shown
heavy 2: not shown
light: B1 light
notes: Alteration in one H chain only; also called He Ab Y300_07I
B6: GpH7-A5/GpH7-B3 variant E269_01G/GpL16-k0 (antibody, human IgG1, kappa)
heavy 1: not shown
heavy 2: not shown
light: B1 light
notes: heterodimerized anti-glypican-3 IgG1; alteration in one H chain only; also called He Ab
B7: GpH7-A5/GpH7-B3 variant D265_18N/GpL16-k0 (antibody, human IgG1, kappa)
heavy 1: not shown
heavy 2: not shown
light: B1 light
notes: as for B6
B8: GpH7-A5/GpH7-B3 variant D265_16H/GpL16-k0 (antibody, human IgG1, kappa)
heavy 1: not shown
heavy 2: not shown
light: B1 light
notes: as for B6
B9: GpH7-A5/GpH7-B3 variant E269_04F/GpL16-k0 (antibody, human IgG1, kappa)
heavy 1: not shown
heavy 2: not shown
light: B1 light
notes: as for B6
B10: GpH7-A5/GpH7-B3 variant D265_19Q/GpL16-k0 (antibody, human IgG1, kappa)
heavy 1: not shown
heavy 2: not shown
light: B1 light
notes: as for B6
B11: GpH7-A5/GpH7-B3 variant D265_13S/GpL16-k0 (antibody, human IgG1, kappa)
heavy 1: not shown
heavy 2: not shown
light: B1 light
notes: as for B6
B12: GpH7-A5/GpH7-B3 variant D265_10E/GpL16-k0 (antibody, human IgG1, kappa)
heavy 1: not shown
heavy 2: not shown
light: B1 light
notes: as for B6
B13: GpH7-A5/GpH7-B3 variant D265_14T/GpL16-k0 (antibody, human IgG1, kappa)
heavy 1: not shown
heavy 2: not shown
light: B1 light
notes: as for B6
B14: GpH7-A5/GpH7-B3 variant E269_02A/GpL16-k0 (antibody, human IgG1, kappa)
heavy 1: not shown
heavy 2: not shown
light: B1 light
notes: as for B6
B15: GpH7-A5/GpH7-B3 variant D265_12R/GpL16-k0 (antibody, human IgG1, kappa)
heavy 1: not shown
heavy 2: not shown
light: B1 light
notes: as for B6
B16: GpH7-A5/GpH7-B3 variant E269_03V/GpL16-k0 (antibody, human IgG1, kappa)
heavy 1: not shown
heavy 2: not shown
light: B1 light
notes: as for B6
B17: GpH7-A5/GpH7-B3 variant D265_11K/GpL16-k0 (antibody, human IgG1, kappa)
heavy 1: not shown
heavy 2: not shown
light: B1 light
notes: as for B6
B18: GpH7-A5/GpH7-B3 variant L328_11K/GpL16-k0 (antibody, human IgG1, kappa)
heavy 1: not shown
heavy 2: not shown
light: B1 light
notes: He Ab; mutation in the GpH7-B3 chain only; also called He Ab
B19: GpH7-A5/GpH7-B3 variant L328_12R/GpL16-k0 (antibody, human IgG1, kappa)
heavy 1: not shown
heavy 2: not shown
light: B1 light
notes: as for B18

The first experiment addresses T3, FcγRIa (human, UniProt P12314 16-292).
T3 construct: extracellular domain; also called FcgRI; FcgRIa; not shown: His tag attached to the C terminus
Description: SPR (Biacore), relative binding; control HeCon Ab GpH7-A5/GpH7-B3/GpL16-k0. For orientation: In SPR one partner is held on a chip, and binding of the other changes the refractive index at the surface.
T3 sequence (P12314 16-292): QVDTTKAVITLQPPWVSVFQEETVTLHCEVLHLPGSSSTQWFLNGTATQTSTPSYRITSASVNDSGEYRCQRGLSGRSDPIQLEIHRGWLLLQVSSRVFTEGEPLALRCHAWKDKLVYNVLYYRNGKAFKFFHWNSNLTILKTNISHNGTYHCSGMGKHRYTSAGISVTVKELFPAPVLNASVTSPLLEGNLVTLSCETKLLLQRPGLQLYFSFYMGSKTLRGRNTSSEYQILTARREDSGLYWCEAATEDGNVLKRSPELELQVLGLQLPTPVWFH
For the molecule B1, the He/Con_1a was 102 % of control (=100).
On to B2, for which the He/Con_1a was 104 % of control (=100).
Same read-out and setting: the figure for B3 is 104 % of control (=100).
For B4, the He/Con_1a is 104 % of control (=100).
The same measure, in the same setting: as for B5, the figure is 108 % of control (=100).

The target of another experiment is T1, FcγRIIb. Description: SPR (Biacore), captured antibody, FcγR as analyte; relative binding, control GpH7-A5/GpH7-B3/GpL16-k0 = 100. On the procedure: (§1) The heterodimerized antibodies He Abs in which one of the H chains was introduced with an alteration were assayed for their binding activities to each activating FcγR and inhibitory FcγR according to the method described in Example 4. […] The activating FcγRs in FIGS. 26, 27, 28, and 29 are FcγRIa, FcγRIIa (R), FcγRIIa (H), and FcγRIIIa, respectively.
(§2) Analysis of interaction between objective antibody and the FcγR was carried out using Biacore T100 (GE Healthcare). HBS-EP+ (GE Healthcare) was used as the running buffer, and the measurement temperature was set to 25° C. Chips produced by immobilizing the antigen peptide by the amine coupling method to a Series S Sencor Chip CM5 (GE Healthcare), or alternatively, chips produced by allowing preliminarily biotinylated antigen peptides to interact with and immobilize onto a Series S Sensor Chip SA (certified) (GE Healthcare) were used. Antibodies of interest were captured onto an antigen peptide-immobilized chip, and allowed to interact to each FcγR diluted with running buffer. To regenerate and repeatedly use the chip, the antibodies captured on the chip were washed off by reacting 10 mM glycine-HCl, pH 1.5.
Consider B6, for which the He/Con_2b was determined as 51.5 control = 100.
The same measure, in the same setting: as for B7, the figure is 6.1 control = 100.
As to B8, the He/Con_2b worked out at 38.3 control = 100.
Molecule B9 gave a He/Con_2b of 45 control = 100.
B10: the He/Con_2b was found to be 33.4 control = 100.
Same read-out and setting: as for B11, the figure is 11.3 control = 100; as for B12, 38.2 control = 100; as for B13, 16 control = 100.
Still for that read-out and setting: the figure for B14 is 49.9 control = 100.
For B15, the He/Con_2b came out at 15 control = 100.
As for B16, the He/Con_2b was 45.1 control = 100.
Still for that read-out and setting: as for B17, the figure is 14.9 control = 100.

Another experiment deals with T2, FcγRIIa R. Described as above. On the procedure:
as §1, §2
In the case of B6, the He/Con_2aR was found to be 65.3 control = 100.
The molecule B7 displayed a He/Con_2aR of 12.4 control = 100.
The molecule B8 had a He/Con_2aR of 58 control = 100.
On the same count and under the same terms, the figure for B9 is 58.2 control = 100; for B10 it is 54.8 control = 100.
On the same count and under the same terms, the figure for B11 is 20.5 control = 100; for B12 it is 58.2 control = 100.
On the same count and under the same terms, the figure for B13 is 25.8 control = 100; for B14 it is 65.3 control = 100; for B15 it is 32.2 control = 100.
B16 yielded a He/Con_2aR of 58.8 control = 100.
B17 had a He/Con_2aR of 33.7 control = 100.

The next experiment has as its target T4, FcγRIa (human, UniProt P12314 16-292).
T4 construct: extracellular domain; also called FcgRI; CD64
The experiment in a line: ratio of He/Con_1a to He/Con_2b (FcγRIa over FcγRIIb), SPR. On the procedure:
as §1, §2
T4 sequence (P12314 16-292): as above
For the molecule B18, the “He_1a/2b (Ia/IIb)” value is 10.5.
For B19, the “He_1a/2b (Ia/IIb)” value worked out at 8.51.

For a further experiment, the target named is T2, FcγRIIa R. Description: SPR (Biacore); He/Con_2aR divided by He/Con_2b (FcγRIIa R over FcγRIIb).
As to B6, the “He_2aR/2b (IIaR/IIb)” value was determined as 1.27 ratio.
Still for that read-out and setting: as for B7, the figure is 2.02 ratio; as for B8, 1.51 ratio; as for B9, 1.29 ratio.
On the same count and under the same terms, the figure for B10 is 1.64 ratio.
On the same count and under the same terms, as for B11, the figure is 1.81 ratio; as for B12, 1.52 ratio.
In the case of B13, the “He_2aR/2b (IIaR/IIb)” value stood at 1.61 ratio.
On the same count and under the same terms, the figure for B14 is 1.31 ratio; for B15 it is 2.15 ratio.
Still for that read-out and setting: as for B16, the figure is 1.3 ratio; as for B17, 2.26 ratio.

For the next experiment, the target named is T4, FcγRIa. Description: SPR (Biacore), captured antibody, soluble FcγR; relative to GpH7-A5/GpH7-B3/GpL16-k0 = 100. On the procedure:
as §1, §2
On to B18, for which the He/Con_1a is 79.2 % of control.
On the same count and under the same terms, the figure for B19 is 78.6 % of control.
